{"source": "patent US9493537", "target": "melanocortin-1 (MC1) receptor on B16/F1 murine melanoma cells (mouse (B16/F1 murine melanoma cells)) (UniProt Q01727)", "sequence (Q01727 whole entry)": "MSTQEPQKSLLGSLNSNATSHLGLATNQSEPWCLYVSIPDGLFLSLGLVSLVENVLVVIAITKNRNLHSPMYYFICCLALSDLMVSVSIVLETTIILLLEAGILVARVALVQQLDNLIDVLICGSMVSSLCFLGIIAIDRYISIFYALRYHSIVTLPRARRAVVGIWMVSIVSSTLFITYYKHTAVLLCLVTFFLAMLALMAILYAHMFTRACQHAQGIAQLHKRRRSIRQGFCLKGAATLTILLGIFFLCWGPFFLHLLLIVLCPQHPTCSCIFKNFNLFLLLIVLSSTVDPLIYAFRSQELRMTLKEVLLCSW", "experiment": "cell-based or functional assay"}
{"substance": "111In-DOTA-GENle-CycMSHhex (peptide)", "values": [{"measurement": "tumor uptake in B16/F1 melanoma-bearing C57 mice at 2 h blocked by co-injection of non-radioactive NDP-MSH", "result": 95.6, "unit": "%"}]}
{"substance": "111In-DOTA-GGNle-CycMSHhex (peptide)", "values": [{"measurement": "tumor uptake in B16/F1 melanoma-bearing C57 mice blocked by 10 µg (6.07 nmol) of non-radiolabeled NDP-MSH", "result": 98, "unit": "%"}]}
